Data published in the Human Domainome abundance scans (Beltran et al. 2025).
± gives the uncertainty stated by the source.

B1: Ras GTPase-activating protein 1, residues 281 to 341; numbered along this chain, P20936 (parent)
chain: RRRVRAILPYTKVPDTDEISFLKGDMFIVHNELEDGWMWVTNLRTDEQGLIVEDLVEEVGR

Variants of: B1
Test: abundance fitness (aPCA) (normalised: wild type 0, dead -1); higher = more abundant; growth selection in yeast, the domain comes from the species named
Details: Homo sapiens

Abundance fitness of substitutions, site by site:
D35: E -0.047 ± 0.062 | I -0.487 ± 0.037 | W -0.337 ± 0.054 | C -0.163 ± 0.032 | K -0.036 ± 0.062 | L -0.207 ± 0.033 | T -0.098 ± 0.034 | G 0.015 ± 0.03 | A -0.024 ± 0.039 | F -0.182 ± 0.03 | Y -0.268 ± 0.029 | H -0.038 ± 0.03 | P -0.126 ± 0.044 | M -0.142 ± 0.069 | R -0.035 ± 0.03 | N -0.025 ± 0.03 | Q 0.007 ± 0.07 | S -0.103 ± 0.026 | V -0.392 ± 0.036
V40: A 0.002 ± 0.033 | G -0.547 ± 0.029 | W -0.917 ± 0.14 | R -0.836 ± 0.048 | F -0.881 ± 0.045 | L -0.935 ± 0.062 | C -0.102 ± 0.027 | P -0.77 ± 0.073 | K -0.682 ± 0.1 | S -0.826 ± 0.036 | T -0.672 ± 0.054 | E -1.13 ± 0.24 | I -0.829 ± 0.048 | D -0.846 ± 0.048 | Q -1.01 ± 0.21 | N -0.987 ± 0.061 | H -0.858 ± 0.063
N31: P -0.841 ± 0.068 | D 0.046 ± 0.033 | K 0.034 ± 0.06 | T -0.046 ± 0.03 | E -0.038 ± 0.056 | R 0.073 ± 0.027 | M -0.044 ± 0.051 | V -0.159 ± 0.028 | G -0.072 ± 0.028 | W -0.043 ± 0.045 | F -0.17 ± 0.029 | L -0.174 ± 0.029 | C -0.129 ± 0.027 | Y -0.057 ± 0.029 | A -0.036 ± 0.032
E32: F -0.054 ± 0.031 | N -0.07 ± 0.03 | G -0.299 ± 0.029 | D -0.026 ± 0.028 | Y -0.03 ± 0.029 | P -0.35 ± 0.044 | V -0.018 ± 0.026 | I 0.031 ± 0.03 | C -0.058 ± 0.029 | T 0.003 ± 0.031 | M 0.017 ± 0.053 | A -0.068 ± 0.029 | S -0.019 ± 0.026 | R -0.053 ± 0.033 | K 0.01 ± 0.054 | W -0.103 ± 0.049
M26: D 0.012 ± 0.03 | T -0.03 ± 0.038 | P -0.325 ± 0.047 | G -0.416 ± 0.03 | Y -0.028 ± 0.029 | A -0.177 ± 0.033 | N -0.029 ± 0.031 | C -0.042 ± 0.027 | I -0.039 ± 0.031 | W -0.104 ± 0.048 | E 0.117 ± 0.057 | L -0.026 ± 0.03 | Q -0.056 ± 0.062 | R -0.186 ± 0.032 | S -0.125 ± 0.028 | K -0.333 ± 0.083 | F -0.042 ± 0.029 | H -0.061 ± 0.034
F27: G -0.82 ± 0.04 | S -0.798 ± 0.036 | L -0.241 ± 0.029 | Y -0.834 ± 0.045 | P -0.74 ± 0.081 | D -0.748 ± 0.051 | M -0.108 ± 0.07 | C -0.485 ± 0.029 | Q -0.815 ± 0.12 | R -0.905 ± 0.054 | I -0.864 ± 0.044 | T -0.914 ± 0.069 | A -0.901 ± 0.06 | W -0.957 ± 0.1 | H -0.724 ± 0.05 | K -0.965 ± 0.13 | V -0.901 ± 0.045
L33: A -0.054 ± 0.031 | D -0.182 ± 0.03 | W -0.136 ± 0.042 | I -0.075 ± 0.028 | P -0.07 ± 0.039 | T -0.03 ± 0.03 | M -0.099 ± 0.055 | C -0.07 ± 0.026 | R 0.04 ± 0.03 | F -0.042 ± 0.026 | S -0.102 ± 0.025 | N -0.158 ± 0.03 | E -0.153 ± 0.065 | Q 0.004 ± 0.05 | Y -0.051 ± 0.027 | G -0.082 ± 0.027
G36: P -0.597 ± 0.055 | F -0.951 ± 0.065 | Y -0.874 ± 0.048 | H -0.161 ± 0.034 | M -0.928 ± 0.12 | K -0.344 ± 0.097 | N -0.149 ± 0.028 | C -0.664 ± 0.035 | V -0.876 ± 0.044 | I -0.88 ± 0.051 | L -0.6 ± 0.057 | Q -0.557 ± 0.09 | R -0.188 ± 0.028 | W -0.867 ± 0.095 | D -0.613 ± 0.038
W39: R -0.03 ± 0.023 | G -0.67 ± 0.024 | Y -0.009 ± 0.023 | Q -0.079 ± 0.046 | V -0.195 ± 0.021 | L -0.063 ± 0.022 | M -0.094 ± 0.03 | C -0.187 ± 0.021 | I -0.284 ± 0.021 | D -0.226 ± 0.023 | F -0.034 ± 0.021 | T -0.26 ± 0.023 | K -0.118 ± 0.037 | E 0.003 ± 0.032 | P -0.796 ± 0.043 | H -0.204 ± 0.024 | N -0.134 ± 0.022
E34: D -0.033 ± 0.034 | G -0.035 ± 0.03 | Q 0.074 ± 0.073 | P 0.03 ± 0.048 | V -0.089 ± 0.03 | K -0.026 ± 0.064 | W -0.28 ± 0.066 | A 0.023 ± 0.04 | F -0.238 ± 0.031 | L -0.182 ± 0.033 | R 0.065 ± 0.034 | S -0.01 ± 0.028 | M -0.159 ± 0.089 | T -0.106 ± 0.041 | I -0.258 ± 0.037 | Y -0.188 ± 0.034 | N -0.004 ± 0.032
M38: K -0.414 ± 0.075 | Q -0.548 ± 0.17 | Y -0.188 ± 0.028 | S -0.451 ± 0.029 | E -1.24 ± 0.24 | C -0.228 ± 0.028 | R -0.505 ± 0.038 | L -0.013 ± 0.031 | F -0.18 ± 0.031 | A -0.396 ± 0.036 | H -0.865 ± 0.061 | D -0.871 ± 0.055 | N -0.623 ± 0.042 | P -0.867 ± 0.098 | W -0.438 ± 0.065 | V -0.305 ± 0.028 | G -0.78 ± 0.044
V29: Q -0.954 ± 0.16 | F -0.913 ± 0.055 | C -0.363 ± 0.029 | W -0.951 ± 0.13 | I -0.057 ± 0.029 | D -0.764 ± 0.043 | M -0.644 ± 0.1 | E -0.873 ± 0.11 | P -0.959 ± 0.079 | L -0.473 ± 0.034 | S -0.866 ± 0.043 | A -0.694 ± 0.041 | N -0.823 ± 0.049 | Y -0.879 ± 0.049 | T -0.879 ± 0.059 | H -0.881 ± 0.062 | R -0.636 ± 0.045 | G -0.861 ± 0.039
T41: N -0.576 ± 0.033 | L -0.357 ± 0.033 | F -0.88 ± 0.05 | V -0.289 ± 0.028 | P -0.973 ± 0.096 | G -0.941 ± 0.046 | D -0.862 ± 0.053 | A -0.633 ± 0.045 | C -0.425 ± 0.028 | S -0.19 ± 0.026 | K -0.143 ± 0.057 | M -0.362 ± 0.064 | H -0.078 ± 0.034 | I -0.594 ± 0.038 | W -0.378 ± 0.063 | R -0.102 ± 0.03 | Y -0.312 ± 0.033
N42: W -0.929 ± 0.11 | P -0.874 ± 0.091 | S -0.235 ± 0.026 | D -0.585 ± 0.032 | V -0.963 ± 0.049 | Y -0.969 ± 0.057 | C -0.1 ± 0.03 | G -0.802 ± 0.036 | L -0.296 ± 0.034 | H -0.381 ± 0.033 | A -0.436 ± 0.033 | F -0.782 ± 0.051 | T -0.875 ± 0.064 | Q -0.737 ± 0.1 | K -0.61 ± 0.083 | I -0.893 ± 0.061 | E -0.698 ± 0.11 | M -0.577 ± 0.098
H30: C -0.362 ± 0.028 | Q -0.033 ± 0.056 | N -0.135 ± 0.028 | W -0.153 ± 0.045 | A -0.4 ± 0.033 | G -0.444 ± 0.028 | F -0.39 ± 0.033 | R -0.255 ± 0.029 | S -0.318 ± 0.026 | P -0.789 ± 0.061 | M -0.151 ± 0.049 | I -0.163 ± 0.03 | L -0.085 ± 0.03 | D -0.122 ± 0.031 | E 0.008 ± 0.077 | Y -0.397 ± 0.034 | T -0.261 ± 0.037 | K -0.151 ± 0.065 | V -0.285 ± 0.029
L43: F -0.425 ± 0.029 | D -0.422 ± 0.04 | A -0.229 ± 0.043 | E -0.026 ± 0.1 | H -0.612 ± 0.047 | G -0.694 ± 0.041 | C 0.007 ± 0.028
G24: V -0.751 ± 0.036 | W -0.545 ± 0.057 | A -0.495 ± 0.034 | E -0.371 ± 0.052 | C -0.733 ± 0.036 | Q -0.628 ± 0.11 | F -0.584 ± 0.035 | M -0.59 ± 0.078 | S -0.362 ± 0.027 | I -0.933 ± 0.061 | L -0.885 ± 0.054 | T -0.881 ± 0.066 | D -0.07 ± 0.031 | H -0.201 ± 0.033 | K -0.981 ± 0.16 | R -0.672 ± 0.039 | Y -0.297 ± 0.033 | P -1.04 ± 0.11 | N -0.133 ± 0.033
K23: Y -0.269 ± 0.023 | T -0.058 ± 0.024 | V -0.13 ± 0.028 | S -0.102 ± 0.02 | W -0.482 ± 0.037
W37: H 0.044 ± 0.022 | G -0.049 ± 0.02 | L -0.003 ± 0.022 | F -0.004 ± 0.021 | P -0.795 ± 0.037 | Q 0.073 ± 0.042 | A -0.014 ± 0.021 | C -0.016 ± 0.021 | M 0.006 ± 0.037 | R 0.088 ± 0.021 | I -0.104 ± 0.022 | Y 0.024 ± 0.021 | K 0.121 ± 0.037 | T 0.037 ± 0.024 | E -0.176 ± 0.036 | S 0.004 ± 0.02
D25: R -0.997 ± 0.062 | A -0.949 ± 0.066 | I -0.946 ± 0.059 | H -0.895 ± 0.059 | C -0.864 ± 0.047 | W -1.11 ± 0.17 | P -0.664 ± 0.093 | V -0.904 ± 0.046 | Q -0.768 ± 0.22 | Y -0.948 ± 0.051 | E -0.712 ± 0.094 | S -0.874 ± 0.042 | F -0.822 ± 0.047 | L -0.852 ± 0.062
I28: N -0.102 ± 0.022 | R -0.206 ± 0.021 | L -0.038 ± 0.022 | G -0.604 ± 0.022 | V -0.016 ± 0.021 | W -0.136 ± 0.03 | K -0.07 ± 0.033 | E 0.098 ± 0.034 | M -0.029 ± 0.031 | A -0.068 ± 0.022 | H -0.069 ± 0.022 | C -0.07 ± 0.021 | T -0.011 ± 0.023 | P -0.85 ± 0.04 | Q -0.047 ± 0.042 | Y -0.079 ± 0.022 | D 0.029 ± 0.022
